Data reported in patent US20220143024A1, “METHODS OF USING IMIPRIDONES” (Board of Regents, The University of Texas System, priority 2019, published 2022).

How the values were obtained:
Test in all cases: BioID-MS +ONC201
[1] = molecular target: SLC27A2 (human) (UniProt O14975)
[2] = molecular target: GTPBP3 (human) (UniProt Q969Y2)
[3] = molecular target: C20orf72 (human) (UniProt Q9BQP7)
[4] = molecular target: MRPL10 (human) (UniProt Q7Z7H8)
[5] = molecular target: FASTKD5 (human) (UniProt Q7L8L6)
[6] = molecular target: LETM1 (human) (UniProt O95202)
LETM1 (human), sequence (O95202 116-739 limits assumed): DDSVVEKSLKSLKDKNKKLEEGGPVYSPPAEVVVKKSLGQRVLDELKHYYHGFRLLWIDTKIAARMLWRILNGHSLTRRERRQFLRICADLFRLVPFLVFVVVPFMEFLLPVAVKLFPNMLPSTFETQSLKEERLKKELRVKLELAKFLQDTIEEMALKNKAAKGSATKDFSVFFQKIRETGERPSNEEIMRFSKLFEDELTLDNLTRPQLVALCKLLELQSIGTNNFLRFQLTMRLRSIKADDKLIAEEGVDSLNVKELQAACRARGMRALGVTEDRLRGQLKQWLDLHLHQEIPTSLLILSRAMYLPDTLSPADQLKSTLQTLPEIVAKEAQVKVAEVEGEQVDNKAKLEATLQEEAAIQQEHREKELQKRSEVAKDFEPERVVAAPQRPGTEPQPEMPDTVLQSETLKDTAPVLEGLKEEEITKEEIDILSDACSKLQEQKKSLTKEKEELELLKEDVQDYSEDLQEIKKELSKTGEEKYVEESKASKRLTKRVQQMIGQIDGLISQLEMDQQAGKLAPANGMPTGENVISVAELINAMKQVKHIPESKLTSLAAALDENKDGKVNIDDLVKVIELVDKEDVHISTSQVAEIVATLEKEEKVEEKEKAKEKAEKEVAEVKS

[7] = molecular target: ALDH2 (human) (UniProt P05091)
[8] = molecular target: CDK5RAP1 (human) (UniProt Q96SZ6)
CDK5RAP1 (human), sequence (Q96SZ6 34-601 limits assumed): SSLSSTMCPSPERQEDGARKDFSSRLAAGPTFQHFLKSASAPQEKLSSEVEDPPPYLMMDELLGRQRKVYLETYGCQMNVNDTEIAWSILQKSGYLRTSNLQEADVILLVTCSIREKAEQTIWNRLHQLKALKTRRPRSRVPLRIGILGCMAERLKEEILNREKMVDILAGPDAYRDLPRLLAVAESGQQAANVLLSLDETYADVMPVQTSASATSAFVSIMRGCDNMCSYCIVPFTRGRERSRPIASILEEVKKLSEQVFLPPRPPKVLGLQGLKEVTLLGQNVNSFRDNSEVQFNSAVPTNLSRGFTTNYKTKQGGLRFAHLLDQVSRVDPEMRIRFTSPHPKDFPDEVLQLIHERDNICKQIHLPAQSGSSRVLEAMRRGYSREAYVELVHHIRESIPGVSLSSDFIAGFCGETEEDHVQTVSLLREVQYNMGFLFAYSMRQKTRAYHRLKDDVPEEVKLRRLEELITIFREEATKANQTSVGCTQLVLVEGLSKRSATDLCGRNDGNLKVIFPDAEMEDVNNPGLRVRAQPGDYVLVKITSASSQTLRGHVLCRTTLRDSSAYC

[9] = molecular target: LYRM7 (human) (UniProt Q5U5X0)
[10] = molecular target: NDUFAF2 (human) (UniProt Q8N183)
[11] = molecular target: VWA8 (human) (UniProt A3KMH1)
[12] = molecular target: AARS2 (human) (UniProt Q5JTZ9)
[13] = molecular target: PAM16 (human) (UniProt Q9Y3D7)
[14] = molecular target: PDK3 (human) (UniProt Q15120)
PDK3 (human), sequence (Q15120 whole entry): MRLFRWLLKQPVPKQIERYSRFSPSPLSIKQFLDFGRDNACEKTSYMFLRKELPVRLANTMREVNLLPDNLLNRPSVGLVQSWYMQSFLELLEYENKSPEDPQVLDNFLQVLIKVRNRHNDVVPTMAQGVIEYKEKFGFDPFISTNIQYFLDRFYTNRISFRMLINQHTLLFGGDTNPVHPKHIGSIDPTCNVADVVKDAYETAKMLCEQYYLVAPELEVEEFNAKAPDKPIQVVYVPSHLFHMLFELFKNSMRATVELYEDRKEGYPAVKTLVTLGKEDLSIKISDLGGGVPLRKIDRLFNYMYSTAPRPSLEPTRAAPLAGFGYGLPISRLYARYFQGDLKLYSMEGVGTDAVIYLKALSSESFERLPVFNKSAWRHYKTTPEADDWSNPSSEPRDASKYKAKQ

[15] = molecular target: ACAT1 (human) (UniProt P24752)
ACAT1 (human), sequence (P24752 34-427 limits assumed): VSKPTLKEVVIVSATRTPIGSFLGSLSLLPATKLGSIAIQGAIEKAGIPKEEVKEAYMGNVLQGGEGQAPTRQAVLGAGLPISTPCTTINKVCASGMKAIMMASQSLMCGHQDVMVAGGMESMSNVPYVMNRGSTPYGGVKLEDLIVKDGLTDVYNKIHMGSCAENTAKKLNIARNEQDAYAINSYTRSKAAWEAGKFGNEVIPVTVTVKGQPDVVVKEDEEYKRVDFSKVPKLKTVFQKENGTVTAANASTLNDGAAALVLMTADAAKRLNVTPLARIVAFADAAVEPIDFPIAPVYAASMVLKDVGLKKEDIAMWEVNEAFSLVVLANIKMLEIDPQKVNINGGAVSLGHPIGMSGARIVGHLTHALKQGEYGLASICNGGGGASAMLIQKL

[16] = molecular target: ABCB7 (human) (UniProt O75027)
[17] = molecular target: BCS1L (human) (UniProt Q9Y276)
[18] = molecular target: MTHFD2 (human) (UniProt P13995)
[19] = molecular target: NDUFS4 (human) (UniProt O43181)
[20] = molecular target: ACAD9 (human) (UniProt Q9H845)
ACAD9 (human), sequence (Q9H845 38-621 limits assumed): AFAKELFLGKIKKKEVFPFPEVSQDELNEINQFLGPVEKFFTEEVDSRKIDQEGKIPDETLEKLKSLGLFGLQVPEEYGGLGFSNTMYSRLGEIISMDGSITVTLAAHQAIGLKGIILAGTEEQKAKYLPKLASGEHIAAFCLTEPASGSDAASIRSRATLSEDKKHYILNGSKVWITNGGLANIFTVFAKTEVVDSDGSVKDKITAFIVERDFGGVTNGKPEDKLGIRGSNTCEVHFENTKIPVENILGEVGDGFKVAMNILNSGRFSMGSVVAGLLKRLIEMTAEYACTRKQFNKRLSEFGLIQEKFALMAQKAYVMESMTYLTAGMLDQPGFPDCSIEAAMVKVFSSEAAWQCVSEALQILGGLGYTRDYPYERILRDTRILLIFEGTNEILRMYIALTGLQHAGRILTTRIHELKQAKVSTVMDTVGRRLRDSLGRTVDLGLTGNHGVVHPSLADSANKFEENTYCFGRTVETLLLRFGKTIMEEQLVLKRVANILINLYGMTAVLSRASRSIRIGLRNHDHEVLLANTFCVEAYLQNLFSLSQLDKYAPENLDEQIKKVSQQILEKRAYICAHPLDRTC

[21] = molecular target: QRSL1 (human) (UniProt Q9H0R6)
[22] = molecular target: MPST (human) (UniProt P25325)
[23] = molecular target: ACO2 (human) (UniProt Q99798)
[24] = molecular target: SUCLG2 (human) (UniProt Q96I99)
[25] = molecular target: AK3 (human) (UniProt Q9UIJ7)
[26] = molecular target: NDUFS6 (human) (UniProt O75380)
NDUFS6 (human), sequence (O75380 29-124 limits assumed): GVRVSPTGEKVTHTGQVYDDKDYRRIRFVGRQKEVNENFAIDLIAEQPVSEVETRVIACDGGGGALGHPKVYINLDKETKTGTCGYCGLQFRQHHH

[27] = molecular target: MRPS28 (human) (UniProt Q9Y2Q9)
[28] = molecular target: NME4 (human) (UniProt O00746)
NME4 (human), sequence (O00746 29-187 limits assumed): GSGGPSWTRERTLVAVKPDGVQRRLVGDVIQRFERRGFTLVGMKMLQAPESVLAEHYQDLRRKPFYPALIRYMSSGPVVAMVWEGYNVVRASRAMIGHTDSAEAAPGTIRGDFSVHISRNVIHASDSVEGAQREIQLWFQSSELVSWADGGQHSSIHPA

[29] = molecular target: GTPBP10 (human) (UniProt A4D1E9)
GTPBP10 (human), sequence (A4D1E9 whole entry): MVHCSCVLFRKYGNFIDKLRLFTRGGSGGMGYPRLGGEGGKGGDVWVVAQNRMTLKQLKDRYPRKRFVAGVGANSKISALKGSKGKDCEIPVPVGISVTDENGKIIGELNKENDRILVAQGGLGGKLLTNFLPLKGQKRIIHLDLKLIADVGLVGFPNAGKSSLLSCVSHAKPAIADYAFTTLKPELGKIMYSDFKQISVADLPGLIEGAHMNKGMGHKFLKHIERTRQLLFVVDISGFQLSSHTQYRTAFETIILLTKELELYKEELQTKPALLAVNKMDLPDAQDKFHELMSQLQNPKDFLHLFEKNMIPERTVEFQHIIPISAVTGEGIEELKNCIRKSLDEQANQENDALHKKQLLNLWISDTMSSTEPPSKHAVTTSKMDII

[30] = molecular target: PYCR2 (human) (UniProt Q96C36)
PYCR2 (human), sequence (Q96C36 2-320 limits assumed): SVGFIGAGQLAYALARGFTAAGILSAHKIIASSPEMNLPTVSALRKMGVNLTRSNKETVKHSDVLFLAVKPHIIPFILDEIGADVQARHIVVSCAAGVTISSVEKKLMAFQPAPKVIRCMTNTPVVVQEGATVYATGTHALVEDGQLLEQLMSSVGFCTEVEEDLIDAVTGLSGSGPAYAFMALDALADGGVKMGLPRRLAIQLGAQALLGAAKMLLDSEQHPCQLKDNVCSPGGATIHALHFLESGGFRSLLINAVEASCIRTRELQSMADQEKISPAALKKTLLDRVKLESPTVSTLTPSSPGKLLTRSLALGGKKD

[31] = molecular target: GATC (human) (UniProt O43716)
GATC (human), sequence (O43716 58-136 limits assumed): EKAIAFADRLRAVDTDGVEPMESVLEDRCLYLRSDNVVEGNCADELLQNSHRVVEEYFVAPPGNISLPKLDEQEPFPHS

[32] = molecular target: PPA2 (human) (UniProt Q9H2U2)
PPA2 (human), sequence (Q9H2U2 33-334 limits assumed): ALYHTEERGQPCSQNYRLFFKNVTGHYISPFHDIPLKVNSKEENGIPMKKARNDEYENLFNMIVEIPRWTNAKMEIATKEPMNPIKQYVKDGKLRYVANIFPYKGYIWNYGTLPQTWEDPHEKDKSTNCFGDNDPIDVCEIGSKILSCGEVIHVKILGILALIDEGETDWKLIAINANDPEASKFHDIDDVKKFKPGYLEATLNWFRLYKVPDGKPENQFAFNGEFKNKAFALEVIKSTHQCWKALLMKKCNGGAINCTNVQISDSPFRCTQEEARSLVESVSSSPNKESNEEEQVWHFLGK

[33] = molecular target: ACN9 (human) (UniProt Q9NRP4)
[34] = molecular target: MTRF1L (human) (UniProt Q9UGC7)
[35] = molecular target: SUCLG1 (human) (UniProt P53597)
[36] = molecular target: OXCT1 (human) (UniProt P55809)
[37] = molecular target: NDUFAF1 (human) (UniProt Q9Y375)
[38] = molecular target: PDPR (human) (UniProt Q8NCN5)
[39] = molecular target: CLYBL (human) (UniProt Q8N0X4)
[40] = molecular target: ECHS1 (human) (UniProt P30084)
[41] = molecular target: MRPL12 (human) (UniProt P52815)
[42] = molecular target: HSDL2 (human) (UniProt Q6YN16)
[43] = molecular target: MRPS24 (human) (UniProt Q96EL2)
[44] = molecular target: COX4I1 (human) (UniProt P13073)
[45] = molecular target: PRKCA (human) (UniProt P17252)
[46] = molecular target: GUF1 (human) (UniProt Q8N442)
[47] = molecular target: SPRYD4 (human) (UniProt Q8WW59)
SPRYD4 (human), sequence (Q8WW59 whole entry): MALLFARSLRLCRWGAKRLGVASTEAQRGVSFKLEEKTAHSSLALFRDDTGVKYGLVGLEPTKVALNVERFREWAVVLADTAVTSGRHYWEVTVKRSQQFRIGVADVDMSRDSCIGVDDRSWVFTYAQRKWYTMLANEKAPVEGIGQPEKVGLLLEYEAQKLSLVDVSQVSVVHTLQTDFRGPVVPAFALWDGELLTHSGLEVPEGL

[48] = molecular target: PNPT1 (human) (UniProt Q8TCS8)
PNPT1 (human), sequence (Q8TCS8 46-783 limits assumed): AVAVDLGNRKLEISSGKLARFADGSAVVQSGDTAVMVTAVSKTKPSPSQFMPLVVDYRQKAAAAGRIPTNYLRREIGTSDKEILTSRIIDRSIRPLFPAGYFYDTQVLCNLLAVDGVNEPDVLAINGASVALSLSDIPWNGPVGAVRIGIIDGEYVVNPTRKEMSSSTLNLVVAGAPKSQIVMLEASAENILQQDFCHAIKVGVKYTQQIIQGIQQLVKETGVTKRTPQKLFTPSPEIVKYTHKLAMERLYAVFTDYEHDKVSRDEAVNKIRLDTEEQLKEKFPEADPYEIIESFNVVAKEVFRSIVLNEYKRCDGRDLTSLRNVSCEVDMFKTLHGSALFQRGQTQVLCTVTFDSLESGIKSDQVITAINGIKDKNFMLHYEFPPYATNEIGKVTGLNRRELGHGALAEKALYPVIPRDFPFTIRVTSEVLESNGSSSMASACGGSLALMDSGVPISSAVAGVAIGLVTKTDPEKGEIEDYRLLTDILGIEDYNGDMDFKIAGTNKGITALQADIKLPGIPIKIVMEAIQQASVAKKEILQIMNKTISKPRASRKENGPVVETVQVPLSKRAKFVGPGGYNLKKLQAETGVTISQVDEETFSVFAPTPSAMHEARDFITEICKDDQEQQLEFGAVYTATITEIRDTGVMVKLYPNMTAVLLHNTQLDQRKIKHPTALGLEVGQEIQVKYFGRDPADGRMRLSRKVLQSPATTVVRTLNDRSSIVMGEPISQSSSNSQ

[49] = molecular target: IDH3A (human) (UniProt P50213)
[50] = molecular target: HADH (human) (UniProt Q16836)
[51] = molecular target: MRPS15 (human) (UniProt P82914)

Log2 Fold change (vs control) [1]: -1.81 log2
Log2 Fold change (vs control) [2]: -2.58 log2
Log2 Fold change (vs control) [3]: -3.52 log2
Log2 Fold change (vs control) [4]: -4.46 log2
Log2 Fold change (vs control) [5]: -4.91 log2
Log2 Fold change (vs control) [6]: -0.94 log2
Log2 Fold change (vs control) [7]: -0.17 log2
Log2 Fold change (vs control) [8]: -4.17 log2
Log2 Fold change (vs control) [9]: -1.38 log2
Log2 Fold change (vs control) [10]: -7.94 log2
Log2 Fold change (vs control) [11]: 1.69 log2
Log2 Fold change (vs control) [12]: -5.73 log2
Log2 Fold change (vs control) [13]: -5.91 log2
Log2 Fold change (vs control) [14]: -1.55 log2
Log2 Fold change (vs control) [15]: -0.59 log2
Log2 Fold change (vs control) [16]: -0.45 log2
Log2 Fold change (vs control) [17]: -0.17 log2
Log2 Fold change (vs control) [18]: -1.43 log2
Log2 Fold change (vs control) [19]: -5.93 log2
Log2 Fold change (vs control) [20]: -0.76 log2
Log2 Fold change (vs control) [21]: -2.9 log2
Log2 Fold change (vs control) [22]: -4.46 log2
Log2 Fold change (vs control) [23]: -5.46 log2
Log2 Fold change (vs control) [24]: -3.08 log2
Log2 Fold change (vs control) [25]: -1.05 log2
Log2 Fold change (vs control) [26]: -6.32 log2
Log2 Fold change (vs control) [27]: -1.24 log2
Log2 Fold change (vs control) [28]: -1.16 log2
Log2 Fold change (vs control) [29]: -4.91 log2
Log2 Fold change (vs control) [30]: -0.21 log2
Log2 Fold change (vs control) [31]: -5.98 log2
Log2 Fold change (vs control) [32]: -1.38 log2
Log2 Fold change (vs control) [33]: -5.46 log2
Log2 Fold change (vs control) [34]: -3.81 log2
Log2 Fold change (vs control) [35]: -1.44 log2
Log2 Fold change (vs control) [36]: -2.58 log2
Log2 Fold change (vs control) [37]: -4.32 log2
Log2 Fold change (vs control) [38]: -4.95 log2
Log2 Fold change (vs control) [39]: -1.63 log2
Log2 Fold change (vs control) [40]: -1.49 log2
Log2 Fold change (vs control) [41]: -3.32 log2
Log2 Fold change (vs control) [42]: -0.71 log2
Log2 Fold change (vs control) [43]: -4.81 log2
Log2 Fold change (vs control) [44]: -2.74 log2
Log2 Fold change (vs control) [45]: -3.58 log2
Log2 Fold change (vs control) [46]: -4.04 log2
Log2 Fold change (vs control) [47]: -1.26 log2
Log2 Fold change (vs control) [48]: 0.32 log2
Log2 Fold change (vs control) [49]: -2 log2
Log2 Fold change (vs control) [50]: -1.3 log2
Log2 Fold change (vs control) [51]: -4.91 log2
Substance: FlagBirA-ClpP (WT) (from UniProt P06709 1-321; Q16740 57-277) (enzyme)
